Earlier results, collected in publication PMC2712931.

Target: Pex5 (UniProt P50542)

Kd: 2750 nM
Substance: Pex14 (from UniProt O75381)
